Test results: patent publication US20080274100A1
Changes are numbered by the printed parent chain. Where two headings read alike, the source gives them in different places.

B1: S1 scFv (scFv)
scFv: EVQLVESGGGVVRPGGSLRLSCAASGFTFDLNPKVKHMWVRQAPGKGLEWVSGINWNGGSTGYADSVKGRFTISRDNAKNSLYLQMNSLRAEDTAVYYCARLRPPFLWGQGTLVTVSRGGGGSGGGGSGGGGSSELTQDPAVSVALGQTVRITCQGDSLRSYYASWYQQKPGQAPVLVIYGKNNRPSGIPDRFSGSSSGNTASLTITGAQAEDEADYYCNSRDSSGNHVVFGGGTKLTVLGAAAEQKLISEEDLNGAA
B2: S11 scFv (scFv)
scFv: B1 scFv with P104Y, L107F

Key:
[1] = biological target: PSGL-1 (residues 42-58) derived peptide, sulfated at 3rd tyrosine position; assay: peptide ELISA, 0.5 µg/well scFv
[2] = biological target: CCR5 (residues 1-18) derived peptide, sulfated at 3rd tyrosine position; assay: peptide ELISA, 0.5 µg/well scFv
[3] = biological target: PSGL-1 (residues 42-58) derived peptide, non-sulfated; assay: peptide ELISA, 0.5 µg/well scFv
[4] = biological target: GPIb (residues 268-285) derived peptide, sulfated at 1st tyrosine position; assay: peptide ELISA, 0.5 µg/well scFv
[5] = biological target: GPIb (residues 268-285) derived peptide, non-sulfated; assay: peptide ELISA, 0.5 µg/well scFv
[6] = biological target: PSGL-1 (residues 42-58) derived peptide, sulfated at 2nd tyrosine position; assay: peptide ELISA, 0.5 µg/well scFv
[7] = biological target: CCR5 (residues 1-18) derived peptide, sulfated at 1st tyrosine position; assay: peptide ELISA, 0.5 µg/well scFv
[8] = biological target: CCR5 (residues 1-18) derived peptide, sulfated at 2nd tyrosine position; assay: peptide ELISA, 0.5 µg/well scFv
[9] = biological target: PSGL-1 (residues 42-58) derived peptide, sulfated at 1st tyrosine position; assay: peptide ELISA, 0.5 µg/well scFv
[10] = biological target: GPIb (residues 268-285) derived peptide, sulfated at 3rd tyrosine position; assay: peptide ELISA, 0.5 µg/well scFv
[11] = biological target: CCR5 (residues 1-18) derived peptide, non-sulfated; assay: peptide ELISA, 0.5 µg/well scFv
[12] = biological target: GPIb on human platelets (human) (UniProt P07359); assay: FACS on human platelets
[13] = biological target: GPIb (residues 268-285) derived peptide, sulfated at 1st tyrosine position; assay: peptide ELISA, 0.5 µg/well scFv; remark: listed apart in the source
[14] = biological target: PSGL-1 (residues 42-58) derived peptide, sulfated at 3rd tyrosine position; assay: peptide ELISA, 0.5 µg/well scFv; remark: listed apart in the source
[15] = biological target: CCR5 (residues 1-18) derived peptide, sulfated at 2nd tyrosine position; assay: peptide ELISA, 0.5 µg/well scFv; remark: listed apart in the source
[16] = biological target: GPIb (residues 268-285) derived peptide, sulfated at 3rd tyrosine position; assay: peptide ELISA, 0.5 µg/well scFv; remark: listed apart in the source

Chain of GPIb on human platelets (human) (P07359 17-652): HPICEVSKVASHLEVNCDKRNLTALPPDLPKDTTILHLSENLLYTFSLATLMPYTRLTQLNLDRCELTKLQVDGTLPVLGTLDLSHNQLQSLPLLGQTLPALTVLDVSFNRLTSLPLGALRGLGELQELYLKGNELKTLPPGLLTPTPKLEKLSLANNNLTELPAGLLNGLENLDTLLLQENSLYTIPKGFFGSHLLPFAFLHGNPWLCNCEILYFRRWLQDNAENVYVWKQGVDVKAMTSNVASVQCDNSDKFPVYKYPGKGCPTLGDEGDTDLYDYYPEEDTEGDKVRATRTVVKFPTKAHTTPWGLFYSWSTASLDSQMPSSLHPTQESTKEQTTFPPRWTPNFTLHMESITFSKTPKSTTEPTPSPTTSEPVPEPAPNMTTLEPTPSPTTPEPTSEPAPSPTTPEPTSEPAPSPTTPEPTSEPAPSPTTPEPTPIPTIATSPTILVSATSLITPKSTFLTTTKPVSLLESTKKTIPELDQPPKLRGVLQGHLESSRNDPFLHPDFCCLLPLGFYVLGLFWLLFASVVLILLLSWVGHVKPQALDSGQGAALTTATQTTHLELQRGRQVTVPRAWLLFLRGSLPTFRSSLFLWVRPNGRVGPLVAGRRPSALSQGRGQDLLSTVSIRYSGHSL

Binder | ELISA read-out at 450 nm [1] | ELISA read-out at 450 nm [2] | ELISA read-out at 450 nm [3] | ELISA read-out at 450 nm [4] | ELISA read-out at 450 nm [5] | ELISA read-out at 450 nm [6] | ELISA read-out at 450 nm [7] | ELISA read-out at 450 nm [8] | ELISA read-out at 450 nm [9] | ELISA read-out at 450 nm [10] | ELISA read-out at 450 nm [11] | fold binding capacity relative to Y1 [12] | ELISA read-out at 450 nm [13] | ELISA read-out at 450 nm [14] | ELISA read-out at 450 nm [15] | ELISA read-out at 450 nm [16]
B1 | 0.8 OD 450 nm | 0.07 OD 450 nm | 0.07 OD 450 nm | 0.8 OD 450 nm | 0.07 OD 450 nm | 0.08 OD 450 nm | 0.07 OD 450 nm | 0.3 OD 450 nm | 0.1 OD 450 nm | 0.15 OD 450 nm | 0.06 OD 450 nm | 25 fold |  |  |  | 
B2 |  |  | 0.01 OD 450 nm |  | 0.1 OD 450 nm |  |  |  |  |  | 0.08 OD 450 nm |  | 0.6 OD 450 nm | 0.7 OD 450 nm | 0.7 OD 450 nm | 0.3 OD 450 nm
